Experimental data from patent US20120071394A1 (ALLIGATOR BIOSCIENCE, published 2012).

Target: T1, Wild-type CHIPS1-121 (Chemotaxis Inhibitory Protein of Staphylococcus aureus) (Staphylococcus aureus, UniProt A6QIG7 29-149)
T1 construct: His tag cleaved off with enterokinase; also called CHIPSWT
Experiment: flow cytometry of gated blood neutrophils after iv CHIPS, stained with rabbit anti-CHIPS IgG and FITC goat anti-rabbit; the staining does not separate C5aR-bound from FPR-bound CHIPS

Binder	binding result
human C5a receptor (C5aR) (receptor, whole, on cells; also called CD88) MDSFNYTTPDYGHYDDKDTLDLNTPVDKTSNTLRVPDILALVIFAVVFLVGVLGNALVVWVTAFEAKRTINAIWFLNLAVADFLSCLALPILFTSIVQHHHWPFGGAACSILPSLILLNMYASILLLATISADRFLLVFKPIWCQNFRGAGLAWIACAVAWGLALLLTIPSFLYRVVREEYFPPKVLCGVDYSHDKRRERAVAIVRLVLGFLWPLLTLTICYTFILLRTWSRRATRSTKTLKVVVAVVASFFIFWLPYQVTGIMMSFLEPSSPTFLLLKKLDSLCVSFAYINCCINPIIYVVAGQGFQGRLRKSLPSLLRNVLTEESVVRESKSFTRSTVDTMAQKTQAV	binds
formylated peptide receptor (FPR) (receptor, whole, on cells) METNSSLPTNISGGTPAVSAGYLFLDIITYLVFAVTFVLGVLGNGLVIWVAGFRMTHTVTTISYLNLAVADFCFTSTLPFFMVRKAMGGHWPFGWFLCKFVFTIVDINLFGSVFLIALIALDRCVCVLHPVWTQNHRTVSLAKKVIIGPWVMALLLTLPVIIRVTTVPGKTGTVACTFNFSPWTNDPKERINVAVAMLTVRGIIRFIIGFSAPMSIVAVSYGLIATKIHKQGLIKSSRPLRVLSFVAAAFFLCWSPYQVVALIATVRIRELLQGMYKEIGIAVDVTSALAFFNSCLNPMLYVFMGQDFRERLIHALPASLERALTEDSTQTSDTATNSTLPSAEVELQAK	binds
